This passage reports EC50 and Max effect/effect 1 µM results from US20250171562A1.

B1: NIgG4B1A1(G4S)2 (Fc fusion)
chain 1: QVQLQESGGGLVQTGGSLRLSCAVHGRTFSNTGMGWFRQAPGNERQFVAIISPSGTSTYYADSVKGRFTISRDPAKNTVYLQMNSLKMDDTAVYYCAASYGSNWSTLRHQRRNEYDAWGQGTQVAVSGGGGSGGGGSGPPCPPCPAPEFLGGPSVFLFPPKPKDTLMISRTPEVTCVVVDVSQEDPEVQFNWYVDGVEVHNAKTKPREEQFNSTYRVVSVLTVLHQDWLNGKEYKCKVSNKGLPSSIEKTISKAKGQPREPQVYTLPPCQEEMTKNQVSLWCLVKGFYPSDIAVEWESNGQPENNYKTTPPVLDSDGSFFLYSRLTVDKSRWQEGNVFSCSVMHEALHNHYTQKSLSLSLGK
chain 2: EVQLLESGGGLVQPGGSLRLSCAASGFTFGNYDMAWVRQAPGKRPEWVSSIDTGGDITHYADSVKGRFTISRDNAKNTLYLQMNSLRPEDTAVYWCATDEEYALGPNEFDYYGQGTLVTVSSGGGGSGGGGSGPPCPPCPAPEFLGGPSVFLFPPKPKDTLMISRTPEVTCVVVDVSQEDPEVQFNWYVDGVEVHNAKTKPREEQFNSTYRVVSVLTVLHQDWLNGKEYKCKVSNKGLPSSIEKTISKAKGQPREPQVCTLPPSQEEMTKNQVSLSCAVKGFYPSDIAVEWESNGQPENNYKTTPPVLDSDGSFFLVSRLTVDKSRWQEGNVFSCSVMHEALHNHYTQKSLSLSLGK
B2: NIgG4A1A1(G4S)2 (Fc fusion)
chain 1: B1 chain 2 with C259Y, S264C, S276W, A278L, V317Y
chain 2: B1 chain 2
B3: CIgE4A1A1(GS)1 (Fc fusion)
chain 1: GPPCPPCPAPEFLGGPSVFLFPPKPKDTLMISRTPEVTCVVVDVSQEDPEVQFNWYVDGVEVHNAKTKPREEQFNSTYRVVSVLTVLHQDWLNGKEYKCKVSNKGLPSSIEKTISKAKGQPREPQVYTLPPCQEEMTKNQVSLWCLVKGFYPSDIAVEWESNGQPENNYKTTPPVLDSDGSFFLYSRLTVDKSRWQEGNVFSCSVMHEALHNHYTQKSLSLSLGKGGGGSEVQLLESGGGLVQPGGSLRLSCAASGFTFGNYDMAWVRQAPGKRPEWVSSIDTGGDITHYADSVKGRFTISRDNAKNTLYLQMNSLRPEDTAVYWCATDEEYALGPNEFDYYGQGTLVTVSS
chain 2: B3 chain 1 with Y127C, C132S, W144S, L146A, Y185V
B4: NIgG4A1A1(G4S)1 (Fc fusion)
chain 1: EVQLLESGGGLVQPGGSLRLSCAASGFTFGNYDMAWVRQAPGKRPEWVSSIDTGGDITHYADSVKGRFTISRDNAKNTLYLQMNSLRPEDTAVYWCATDEEYALGPNEFDYYGQGTLVTVSSGGGGSGPPCPPCPAPEFLGGPSVFLFPPKPKDTLMISRTPEVTCVVVDVSQEDPEVQFNWYVDGVEVHNAKTKPREEQFNSTYRVVSVLTVLHQDWLNGKEYKCKVSNKGLPSSIEKTISKAKGQPREPQVYTLPPCQEEMTKNQVSLWCLVKGFYPSDIAVEWESNGQPENNYKTTPPVLDSDGSFFLYSRLTVDKSRWQEGNVFSCSVMHEALHNHYTQKSLSLSLGK
chain 2: B4 chain 1 with Y254C, C259S, W271S, L273A, Y312V
B5: CIgG4A1A1(RS) (Fc fusion)
chain 1: GPPCPPCPAPEFLGGPSVFLFPPKPKDTLMISRTPEVTCVVVDVSQEDPEVQFNWYVDGVEVHNAKTKPREEQFNSTYRVVSVLTVLHQDWLNGKEYKCKVSNKGLPSSIEKTISKAKGQPREPQVYTLPPCQEEMTKNQVSLWCLVKGFYPSDIAVEWESNGQPENNYKTTPPVLDSDGSFFLYSRLTVDKSRWQEGNVFSCSVMHEALHNHYTQKSLSLSLGKRSEVQLLESGGGLVQPGGSLRLSCAASGFTFGNYDMAWVRQAPGKRPEWVSSIDTGGDITHYADSVKGRFTISRDNAKNTLYLQMNSLRPEDTAVYWCATDEEYALGPNEFDYYGQGTLVTVSS
chain 2: B5 chain 1 with Y127C, C132S, W144S, L146A, Y185V
B6: NIgG4A1A1(RS) (Fc fusion)
chain 1: EVQLLESGGGLVQPGGSLRLSCAASGFTFGNYDMAWVRQAPGKRPEWVSSIDTGGDITHYADSVKGRFTISRDNAKNTLYLQMNSLRPEDTAVYWCATDEEYALGPNEFDYYGQGTLVTVSSRSGPPCPPCPAPEFLGGPSVFLFPPKPKDTLMISRTPEVTCVVVDVSQEDPEVQFNWYVDGVEVHNAKTKPREEQFNSTYRVVSVLTVLHQDWLNGKEYKCKVSNKGLPSSIEKTISKAKGQPREPQVYTLPPCQEEMTKNQVSLWCLVKGFYPSDIAVEWESNGQPENNYKTTPPVLDSDGSFFLYSRLTVDKSRWQEGNVFSCSVMHEALHNHYTQKSLSLSLGK
chain 2: B6 chain 1 with Y251C, C256S, W268S, L270A, Y309V
B7: NIgG4B1A1(G4S)3 (Fc fusion)
chain 1: QVQLQESGGGLVQTGGSLRLSCAVHGRTFSNTGMGWFRQAPGNERQFVAIISPSGTSTYYADSVKGRFTISRDPAKNTVYLQMNSLKMDDTAVYYCAASYGSNWSTLRHQRRNEYDAWGQGTQVAVSGGGGSGGGGSGGGGSGPPCPPCPAPEFLGGPSVFLFPPKPKDTLMISRTPEVTCVVVDVSQEDPEVQFNWYVDGVEVHNAKTKPREEQFNSTYRVVSVLTVLHQDWLNGKEYKCKVSNKGLPSSIEKTISKAKGQPREPQVYTLPPCQEEMTKNQVSLWCLVKGFYPSDIAVEWESNGQPENNYKTTPPVLDSDGSFFLYSRLTVDKSRWQEGNVFSCSVMHEALHNHYTQKSLSLSLGK
chain 2: EVQLLESGGGLVQPGGSLRLSCAASGFTFGNYDMAWVRQAPGKRPEWVSSIDTGGDITHYADSVKGRFTISRDNAKNTLYLQMNSLRPEDTAVYWCATDEEYALGPNEFDYYGQGTLVTVSSGGGGSGGGGSGGGGSGPPCPPCPAPEFLGGPSVFLFPPKPKDTLMISRTPEVTCVVVDVSQEDPEVQFNWYVDGVEVHNAKTKPREEQFNSTYRVVSVLTVLHQDWLNGKEYKCKVSNKGLPSSIEKTISKAKGQPREPQVCTLPPSQEEMTKNQVSLSCAVKGFYPSDIAVEWESNGQPENNYKTTPPVLDSDGSFFLVSRLTVDKSRWQEGNVFSCSVMHEALHNHYTQKSLSLSLGK
B8: NIgG4A1A1(G4S)3 (Fc fusion)
chain 1: B7 chain 2 with C264Y, S269C, S281W, A283L, V322Y
chain 2: B7 chain 2

Where a chain is given by its changes, count along the chain named. Names and notes keep the numbering of the source.

mixture of three Der p 2 specific recombinant human IgE clones H10, H12, P4E (human), sequence (P01854 other isoform, or with tags, fused parts or gaps): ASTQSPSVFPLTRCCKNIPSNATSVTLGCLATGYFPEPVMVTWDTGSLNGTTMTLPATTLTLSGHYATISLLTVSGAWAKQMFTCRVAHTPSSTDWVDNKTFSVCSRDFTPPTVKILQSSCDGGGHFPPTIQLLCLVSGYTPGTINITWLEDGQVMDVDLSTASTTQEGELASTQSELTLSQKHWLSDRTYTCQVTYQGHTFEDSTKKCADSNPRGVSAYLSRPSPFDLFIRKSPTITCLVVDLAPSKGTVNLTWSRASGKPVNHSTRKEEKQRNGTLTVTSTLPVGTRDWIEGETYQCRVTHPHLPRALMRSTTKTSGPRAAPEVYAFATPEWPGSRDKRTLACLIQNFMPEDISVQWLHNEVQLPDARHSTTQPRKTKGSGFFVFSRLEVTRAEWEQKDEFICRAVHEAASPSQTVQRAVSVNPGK

The test addresses mixture of three Der p 2 specific recombinant human IgE clones H10, H12, P4E (human) (UniProt P01854). Kind of test: RBL-SX38 IgE displacement, FACS.
Consider B1, for which the EC50 worked out at 3 nM and the Max effect/effect 1 µM was found to be 99%. In the case of B2, the Max effect/effect 1 µM was determined as 36%. Take B3: the Max effect/effect 1 µM is 7%. The same measure, in the same setting: as for B4, the figure is 44%. As to B5, the Max effect/effect 1 µM came out at 11%. On to B6, for which the Max effect/effect 1 µM was 45%. In the case of B7, the concentration for a half-maximal effect (EC50) turned out to be 2.6 nM and the Max effect/effect 1 µM is 99%.

As to B8, the Max effect/effect 1 µM is 40%.

The EC50 is the concentration needed to bring the measured effect to its halfway point.
